Data on 2 molecules can be found in paper PMC10421056 (Science Advances, 2023).

The target in this assay is His-tagged histone H2B.9 (Arabidopsis, UniProt O23629 1-150). Nature of the assay: reconstitution of histone heterodimers.
Sequence of His-tagged histone H2B.9 (O23629 whole entry): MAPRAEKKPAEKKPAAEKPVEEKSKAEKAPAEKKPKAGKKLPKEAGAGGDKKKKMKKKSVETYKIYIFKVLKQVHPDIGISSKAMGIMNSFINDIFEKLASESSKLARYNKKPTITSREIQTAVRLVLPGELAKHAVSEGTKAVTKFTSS

B1: His-tagged histone H2A.Z.9 (natural protein)
chain: not shown
Take B1: the binding result is “binds”.

B2: His-tagged histone H2A.X.3 (natural protein)
chain: MSSGAGSGTTKGGRGKPKATKSVSRSSKAGLQFPVGRIARFLKAGKYAERVGAGAPVYLSAVLEYLAAEVLELAGNAARDNKKTRIVPRHIQLAVRNDEELSKLLGSVTIANGGVLPNIHQTLLPSKVGKNKGDIGSASQEF
On to B2, for which the binding result is “binds”.
